The values that follow are results of earlier work, collected in patent US20220184236A1, “NANOPARTICLE, CONTRAST AGENT FOR MAGNETIC RESONANCE IMAGING COMPRISING SAME AND ZWITTERIONIC LIGAND COMPOUND” (ASTELLAS PHARMA INC., priority 2018, published 2022).

For this data set the following is noted: authentic sample, stated size.

B1: ovalbumin (protein, UniProt P01012 2-386, looked up)
Ovalbumin: GSIGAASMEFCFDVFKELKVHHANENIFYCPIAIMSALAMVYLGAKDSTRTQINKVVRFDKLPGFGDSIEAQCGTSVNVHSSLRDILNQITKPNDVYSFSLASRLYAEERYPILPEYLQCVKELYRGGLEPINFQTAADQARELINSWVESQTNGIIRNVLQPSSVDSQTAMVLVNAIVFKGLWEKAFKDEDTQAMPFRVTEQESKPVQMMYQIGLFRVASMASEKMKILELPFASGTMSMLVLLPDEVSGLEQLESIINFEKLTEWTSSNVMEERKIKVYLPRMKMEEKYNLTSVLMAMGITDVFSSSANLSGISSAESLKISQAVHAAHAEINEAGREVVGSAEAGVDAASVSEEFRADHPFLFCIKHIATNAVLFFGRCVSP
notes: authentic sample for SEC, particle size 6.1 nm
As to B1, the particle size is given as 6.1 nm.
